Experimental data: publication PMC12567051, “Performing Dual Glucose Clamp Experiments in Sedated Farm Swine: A Practical Method” (Methods and Protocols, 2025)

Experiment: Insulin pharmacokinetics during hyperinsulinemic-euglycemic clamp
Assay type: in vivo
Conditions: 24 clamps in 2 swine
Text: One CSII was initiated with commercial insulin lispro (U-100, Eli Lilly and Company, Indianapolis, IN, USA) at 0.4 units/hour, and one with preservative-free saline or diluent via 2 commercial insulin pumps. This strategy was used to mimic real-world conditions and avoid potential occlusion of the catheters, while comparing occlusion rates between insulin and saline infusions. Postoperatively, the swine were monitored twice daily for signs of pain/discomfort, hypoglycemia, and infection. Glucose concentrations (trends) were also monitored using two real-time continuous glucose sensors (CGM G4 Dexcom Inc, San Diego, CA, USA) placed laterally on the lower abdomen.
Once the fasting animal was comfortably positioned in the sling apparatus, endogenous insulin secretion was suppressed using an octreotide infusion. An initial octreotide bolus dose (7.2 µg/kg) was administered 60 min prior to starting the clamp, followed by a maintenance dose of (3.6 µg/kg/h). […]
After beginning the clamp study on the first swine, a second team ensured that duplicate laboratory and anesthesia equipment were set up and calibrated in the other half of the procedure room. […] Blood glucose measurements and insulin samples were obtained at 5 and 10 min intervals for 240 min, while other data, such as vital signs and gas concentrations, were recorded continuously.

Substance: insulin lispro
- time for insulin concentrations to return to near baseline (after bolus insulin 0.15 IU/kg via CSII catheter, sedated farm swine): ≤ 90 min
- insulin Cmax (sedated female farm swine, bolus insulin 0.15 IU/kg via CSII catheter (subcutaneous, abdomen), endogenous insulin suppressed with octreotide, glucose clamped at 85 mg/dL, mean): 0.1085 nM
